Data as given in patent publication US20110038869A1.
Like-named read-outs stand apart in the source and are kept apart here.

What was measured:
[1] = target: CD32aECDHis (human) (UniProt P12318); experiment: TR-FRET competition of unlabeled against labelled HuMab-KLH, Fc-mediated
[2] = target: CD32bECDHis (human) (UniProt P31994); experiment: as above
[3] = target: CD32b on CD32b+ Daudi cells (Daudi-luc) (human) (UniProt P31994); experiment: cell-based or functional assay
[4] = target: CD32b on CD32b+ Daudi cells (Daudi-luc) (human) (UniProt P31994); experiment: cell-based or functional assay; remark: listed apart in the source
[5] = target: CD32bECDHis (human) (UniProt P31994); experiment: ELISA on coated CD32bECDHis
[6] = target: CD32b on CD32b+ Daudi cells (Daudi-luc) (human) (UniProt P31994); experiment: flow cytometry on Daudi-luc cells
[7] = target: full length CD32b on stably transfected IIA1.6 cells (human) (UniProt P31994); experiment: flow cytometry on IIA1.6-CD32b cells
[8] = target: full length CD32b1 on transfected IIA1.6 cells (human) (UniProt P31994); experiment: flow cytometry on IIA1.6-CD32b1 cells
[9] = target: full length CD32b2 on transfected IIA1.6 cells (human) (UniProt P31994); experiment: flow cytometry on IIA1.6-CD32b2 cells
[10] = target: biotinylated CD32bECDHis (human) (UniProt P31994); experiment: competition ELISA, competitor 016
[11] = target: biotinylated CD32bECDHis (human) (UniProt P31994); experiment: competition ELISA, competitor 020
[12] = target: biotinylated CD32bECDHis (human) (UniProt P31994); experiment: competition ELISA, competitor 022
[13] = target: biotinylated CD32bECDHis (human) (UniProt P31994); experiment: competition ELISA, competitor 024
[14] = target: biotinylated CD32bECDHis (human) (UniProt P31994); experiment: competition ELISA, competitor 026
[15] = target: biotinylated CD32bECDHis (human) (UniProt P31994); experiment: competition ELISA, competitor 028
[16] = target: biotinylated CD32bECDHis (human) (UniProt P31994); experiment: competition ELISA, competitor 034
[17] = target: biotinylated CD32bECDHis (human) (UniProt P31994); experiment: competition ELISA, competitor 038
[18] = target: biotinylated CD32bECDHis (human) (UniProt P31994); experiment: competition ELISA, competitor 053
[19] = target: biotinylated CD32bECDHis (human) (UniProt P31994); experiment: competition ELISA, competitor 063
[20] = target: biotinylated CD32bECDHis (human) (UniProt P31994); experiment: competition ELISA, competitor 2B6
[21] = target: CD32b on CD32b+ Daudi cells (Daudi-luc) (human) (UniProt P31994); experiment: flow cytometry on JeKo-1 mantle cell lymphoma cells
[22] = target: CD32bECDHis (human) (UniProt P31994); experiment: TR-FRET competition against HuMab-KLH-AlexaFluor 647
[23] = target: CD32bECDHis (human) (UniProt P31994); experiment: SPR BIAcore 3000, antibody immobilized, CD32bECDHis analyte
[24] = target: full length CD32b1 on transfected IIA1.6 cells (human) (UniProt P31994); experiment: flow cytometry on IIA1.6-CD32b1 against IIA1.6-CD32b2 cells

Chain of biotinylated CD32bECDHis (human) (P31994 43-223 limits assumed, form in doubt): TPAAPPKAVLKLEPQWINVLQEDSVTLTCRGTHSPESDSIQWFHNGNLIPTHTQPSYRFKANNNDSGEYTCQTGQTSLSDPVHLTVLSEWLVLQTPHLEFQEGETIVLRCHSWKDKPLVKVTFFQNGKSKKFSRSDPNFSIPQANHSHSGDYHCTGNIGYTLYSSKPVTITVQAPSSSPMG
Chain of CD32bECDHis (human) (P31994 43-223 limits assumed, form in doubt): as above
Chain of CD32b on CD32b+ Daudi cells (Daudi-luc) (human) (P31994 43-310): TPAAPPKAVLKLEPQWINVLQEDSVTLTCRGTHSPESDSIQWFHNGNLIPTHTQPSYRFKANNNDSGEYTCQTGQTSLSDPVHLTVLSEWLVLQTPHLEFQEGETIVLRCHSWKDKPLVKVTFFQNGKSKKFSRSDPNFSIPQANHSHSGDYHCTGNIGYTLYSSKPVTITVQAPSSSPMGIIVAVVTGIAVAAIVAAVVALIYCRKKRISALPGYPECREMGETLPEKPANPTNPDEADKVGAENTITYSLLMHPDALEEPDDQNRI
Chain of full length CD32b1 on transfected IIA1.6 cells (human) (P31994 43-310): as above
Chain of full length CD32b on stably transfected IIA1.6 cells (human) (P31994 43-310): as above
Chain of full length CD32b2 on transfected IIA1.6 cells (human) (P31994 other isoform, or with tags, fused parts or gaps): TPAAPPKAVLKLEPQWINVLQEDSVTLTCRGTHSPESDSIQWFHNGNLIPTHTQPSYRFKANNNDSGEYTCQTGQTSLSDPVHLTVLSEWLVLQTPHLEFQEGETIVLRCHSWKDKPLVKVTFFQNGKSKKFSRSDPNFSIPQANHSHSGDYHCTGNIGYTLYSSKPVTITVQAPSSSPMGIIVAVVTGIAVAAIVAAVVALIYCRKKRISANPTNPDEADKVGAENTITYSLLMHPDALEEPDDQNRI
Chain of CD32aECDHis (human) (P12318 34-215 limits assumed, form in doubt): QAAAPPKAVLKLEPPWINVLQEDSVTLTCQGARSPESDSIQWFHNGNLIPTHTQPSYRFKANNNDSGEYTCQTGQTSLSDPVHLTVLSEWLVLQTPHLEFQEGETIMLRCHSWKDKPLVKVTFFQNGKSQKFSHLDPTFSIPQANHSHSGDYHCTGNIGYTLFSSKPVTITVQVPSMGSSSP

**Q.** Which results are given for “HuMab-KLH (a human monoclonal antibody against KLH (keyhole limpet haemocyanin))”?
**A.** IC50 [1]: 134000 pM; IC50 [2]: 417000 pM

**Q.** With chimeric anti-CD32b antibody 2B6 as the substance, how does the EC50 (nM) in ADCC, lysis of 51Cr-labelled Daudi cells by PBMC [3] read?
**A.** 0.13 nM

**Q.** And the EC50 (nM) in ADCC, lysis of 51Cr-labelled Daudi cells by PBMC [4]?
**A.** 0.25 nM

**Q.** What about the EC50 [5] of the same substance?
**A.** 1240 pM

**Q.** What about the EC50 [6] of the same substance?
**A.** 100 pM

**Q.** And the EC50 [7]?
**A.** 1490 pM

**Q.** And the EC50 [8]?
**A.** 240 pM

**Q.** What about the EC50 [9] of the same substance?
**A.** 190 pM

**Q.** What about the % residual binding [10] of the same substance?
**A.** 105%

**Q.** What about the % residual binding [11] of the same substance?
**A.** 163%

**Q.** And the % residual binding [12]?
**A.** 179%

**Q.** And the % residual binding [13]?
**A.** 174%

**Q.** What about the % residual binding [14] of the same substance?
**A.** 168%

**Q.** And the % residual binding [15]?
**A.** 165%

**Q.** And the % residual binding [16]?
**A.** 185%

**Q.** What about the % residual binding [17] of the same substance?
**A.** 113%

**Q.** What about the % residual binding [18] of the same substance?
**A.** 185%

**Q.** What about the % residual binding [19] of the same substance?
**A.** 181%

**Q.** What about the % residual binding [20] of the same substance?
**A.** 20%

**Q.** And the EC50 [21]?
**A.** 340 pM

**Q.** What about the IC50 [22] of the same substance?
**A.** 570 pM

**Q.** What about the Kd [23] of the same substance?
**A.** 300 pM

**Q.** What about the koff [23] of the same substance?
**A.** 0.00087 s⁻¹

**Q.** And the kon [23]?
**A.** 2.61e+06 M⁻¹ s⁻¹

**Q.** And the Ratio EC50 (CD32b1)/EC50(CD32b2) [24]?
**A.** 1.27
